# Experimental data: patent US11034759B2, “Humanized M-CSF specific monoclonal antibodies, kits, and uses thereof” (NOVARTIS VACCINES AND DIAGNOSTICS, INC., priority 2004, dated 2021)
# T1: MCSF (Homo sapiens, UniProt P09603)
# T1 sequence (P09603 33-255 limits assumed): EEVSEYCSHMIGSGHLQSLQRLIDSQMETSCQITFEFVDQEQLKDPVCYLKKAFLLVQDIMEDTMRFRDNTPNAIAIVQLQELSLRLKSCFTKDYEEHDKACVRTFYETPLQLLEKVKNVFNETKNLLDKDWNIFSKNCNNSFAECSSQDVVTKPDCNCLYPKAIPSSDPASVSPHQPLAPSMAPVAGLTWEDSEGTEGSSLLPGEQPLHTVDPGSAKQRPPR
# B1: heRX1-10.G4: Human Engineered RX1 construct 10 with IgG4 constant region; named only in Table 12 (antibody)
# heavy: QVQLQESGPGLVKPSQTLSLTCTVSDYSITSDYAWNWIRQFPGKGLEWMGYISYSGSTSYNPSLKSRITISRDTSKNQFSLQLNSVTAADTAVYYCASFDYAHAMDYWGQGTTVTVSS
# light: DIVLTQSPAFLSVTPGEKVTFTCQASQSIGTSIHWYQQKTDQAPKLLIKYASESISGIPSRFSGSGSGTDFTLTISSVEAEDAADYYCQQINSWPTTFGGGTKLEIKRT
# modifications: left off: a dimerising Fc or GST
# B2: 5H4: MCSF-specific murine antibody 5H4 (SEQ ID NOs: 10 and 11) (antibody, listed as Mus musculus)
# heavy: EIQLQQSGPELVKTGTSVKISCKASGYSFTGYFMHWVKQSHGKSLEWIGYISCYNGDTNYNQNFKGKATFTVDTSSSTAYMQFNSLTSEDSAVYYCAREGGNYPAYWGQGTLVTVSAAKTTPPSVYPLAPGSAAQTNSMVTLGCLVKGYFPEPVTVTWNSGSLSSGVHTFPAVLQSDLYTLSSSVTVPSSTWPSETVTCNVAHPASSTKVDKKIVPRDCGCKPCICTVPEVSSVFIFPPKPKDVLTITLTPKVTCVVVDISKDDPEVQFSWFVDDVEVHTAQTQPREEQFNSTFRSVSELPIMHQDWLNGKEFKCRVNSAAFPAPIEKTISKTKGRPKAPQVYTIPPPKEQMAKDKVSLTCMITDFFPEDITVEWQWNGQPAENYKNTQPIMDTDGSYFVYSKLNVQKSNWEAGNTFTCSVLHEGLHNHHTEKSLSHSPGK
# light: DIVMTQSHKFMSTSVGDRVTITCKASQNVGTAVTWYQQKPGQSPKLLIYWTSTRHAGVPDRFTGSGSGTDFTLTISDVQSEDLADYFCQQYSSYPLTFGAGTKLELKRADAAPTVSIFPPSSEQLTSGGASVVCFLNNFYPKDINVKWKIDGSERQNGVLNSWTDQDSKDSTYSMSSTLTLTKDEYERHNSYTCEATHKTSTSPIVKSFNRNEC
# Assays:
# MCSF [1] = target: T1, MCSF; experiment: M-NFS-60 proliferation assay, neutralizing activity (Example 14); format: cell-based; settings: Table 12; relative IC50, M-NFS-60 proliferation, 10 ng/ml M-CSF, 72 hours
# Source text: To test the neutralizing activity of M-CSF antibodies, a proliferation assay of M-NFS-60 cell line was used (American Type Culture Collection, Accession No. CRL-1838, available from ATCC in Rockville, Md., USA, derived from a myologenous leukemia induced with the Cas-Br.MuLV wild mouse ecotropic retrovirus. The cell line responds to both interleukin 3 and M-CSF and contains a truncated c-myb proto-oncogene caused by the integration of a retrovirus). Proliferation of M-NFS-60 requires active M-CSF in a dose-dependent fashion. In the assay, M-NFS-60 cells were washed and plated in RPIM1640 medium with 10% FBS and 1% Pen/Strep. […] Cells were incubated at 37° C. under 5% CO2 for 72 hours before cell numbers were quantified by CellTiter Glo assay (Promega). […] The IC50 of each antibody was analyzed by curve fit.
# The assay was repeated using human MCSF in serum, MDA231 conditioned medium (which contains M-CSF), cynomologous monkey MCSF in serum, and cynomologous monkey recombinant MCSF. The results are presented in FIGS. 25 (recombinant MCSF), 26 (human MCSF in serum) and 27 (MDA231 conditioned medium) as the fluorescent reading from CellTiter Glo assay, which is linear with cell number. […]
# MCSF [2] = target: T1, MCSF; experiment: Recognition of M-CSF under reducing and non-reducing conditions; format: binding; settings: 0.1 μg M-CSF
# Description: Accordingly, the anti-M-CSF antibodies were tested against 0.1 μg M-CSF under reducing as well as non-reducing conditions.
# MCSF [3] = target: T1, MCSF; experiment: Biacore analysis, M-CSF immobilized, intact Mab or Fab flowed over (Example 11); format: binding; settings: Table 9, 25° C., 1:1 interaction model
# Description: Specifically, M-CSF was immobilized onto CMS biosensor chip via amine coupling. 0.05 μg/ml M-CSF in 10 mM Na Acetate pH 4.0 was injected at 1 μl/min for 5 minutes to achieve RL=6-12 RU. Test antibody (or Fab fragment) were flowed over the modified biosensor surface at varying concentrations. Test antibodies were diluted in 0.01 M HEPES pH 7.4, 0.15 M NaCL, 3 mM EDTA, 0.005% Surfactant P20 (HBS-EP) and all experiments were done at 25° C. Kinetic and affinity constants were determined using Biaevaluation software (Biacore) with a 1:1 interaction model/global fit.
# MCSF [4] = target: T1, MCSF; experiment: Biacore analysis, antibody captured on anti-mouse Fc chip, MCSF flowed over; format: binding; settings: Table 8, 25° C., 1:1 interaction model
# Description: Binding properties of the aforementioned antibodies were analyzed using Biacore analyses. […] The aforementioned antibodies were then captured on the anti-mouse Fc/CM5 biosensor chip at 1.5 μg/ml for 3 min at 2 μl/min. MCSF was flowed over the modified biosensor surface at varying concentrations (Rmax ˜15). Test antibodies and antigen were diluted in 0.01 M HEPES pH 7.4, 0.15 M NaCL, 3 mM EDTA, 0.005% Surfactant P20 (HBS-EP). All experiments were performed at 25° C. Kinetic and affinity constants were determined using Biaevaluation software (Biacore) with a 1:1 interaction model/global fit.
Molecule,IC50 Fold Loss (MCSF [1]),Form of M-CSF recognized (MCSF [2]),Ka (MCSF [3]),Kd (MCSF [3]),Ka (MCSF [4]),Kd (MCSF [4])
B1,No loss,,,,,
B2,,Only the non-reduced form of M-CSF was recognized,127000 M⁻¹ s⁻¹,0.00126 s⁻¹,594000 M⁻¹ s⁻¹,0.00177 s⁻¹
